From article PMC7661507, “Polyelectrolyte interactions enable rapid association and dissociation in high-affinity disordered protein complexes” (Nature Communications, 2020)

What was measured:
Details in all cases: both partners purified
[1] = target: T1, unlabeled recombinant wild-type human histone H1.0 (human, UniProt P07305 1-194); assay: single-molecule FRET of freely diffusing molecules; 50 pM donor/acceptor-labeled ProTα titrated with unlabeled H1; fraction bound from transfer efficiency histograms; 10 mM TBS, 0.1 mM EDTA, 200 mM ionic strength (KCl), 140 mM β-mercaptoethanol, 0.01% Tween 20
T1 construct: linker histone H1.0, human, H1F0 gene, UniProt P07305, wild type; also called linker histone H1.0; unlabeled H1; source: bought: New England Biolabs (cat. # M2501S)

[2] = target: T1, unlabeled recombinant wild-type human …; assay: single-molecule FRET of freely diffusing molecules, competition titration; 50 pM labeled ProTα and constant unlabeled H1 (10 nM; also 1 µM and 20 µM in Fig. 2), unlabeled ProTα varied; TBS, 200 mM ionic strength; coupled binding equilibria fit
[3] = target: T1, unlabeled recombinant wild-type human …; assay: single-molecule FRET of surface-immobilized molecules; biotinylated labeled ProTα immobilised on neutravidin/PEG surface, nanomolar unlabeled H1 in solution; degassed TBS in D2O, 200 mM ionic strength, oxygen scavenger; two-state hidden Markov model of photon time traces

B1: ProTα E56C/D110C labeled with Alexa Fluor 488/594 (natural protein)
chain: SDAAVDTSSEITTKDLKEKKEVVEEAENGRDAPANGNAENEENGEQEADNEVDEECEEGGEEEEEEEEGDGEEEDGDEDEEAESATGKRAAEDDEDDDVDTKKQKTDEDC
modifications: Alexa Fluor 488 maleimide and Alexa Fluor 594 maleimide on the cysteines at positions 56 and 110
Kd [1]: 0.73 nM

B2: unlabeled ProTα (natural protein, human, UniProt P06454 1-111, looked up)
chain: MSDAAVDTSSEITTKDLKEKKEVVEEAENGRDAPANGNAENEENGEQEADNEVDEEEEEGGEEEEEEEEGDGEEEDGDEDEEAESATGKRAAEDDEDDDVDTKKQKTDEDD
notes: prothymosin α (ProTα), human, PTMA gene, UniProt P06454; The main text calls it only 'unlabeled ProTα'; also called prothymosin α; source: E. coli C41, purified (IMAC, tag cleavage, RP-HPLC)
Kd [2]: 1.1 nM

B3: Avi-Tag-ProTα E56C/D110C labeled with Cy3B/LD650 (natural protein)
chain: MSDAAVDTSSEITTKDLKEKKEVVEEAENGRDAPANGNAENEENGEQEADNEVDEECEEGGEEEEEEEEGDGEEEDGDEDEEAESATGKRAAEDDEDDDVDTKKQKTDEDC
modifications: biotin on Lys12 of the Avi-tag; Cy3B maleimide and LD650 maleimide on the cysteines at positions 56 and 110
Kd [3]: 1.2 ± 0.1 nM
koff [3]: 1.7 ± 0.1 s⁻¹
kon [3]: 1.45e+09 M⁻¹ s⁻¹
